# According to article PMC5761895:
# pEC50: −log10 of the molar value.
# Biological target: Fluorescently labelled replication protein A (Flu-RPA) (human) (UniProt P27694)
# Sequence (P27694 whole entry, chain 1 of 3): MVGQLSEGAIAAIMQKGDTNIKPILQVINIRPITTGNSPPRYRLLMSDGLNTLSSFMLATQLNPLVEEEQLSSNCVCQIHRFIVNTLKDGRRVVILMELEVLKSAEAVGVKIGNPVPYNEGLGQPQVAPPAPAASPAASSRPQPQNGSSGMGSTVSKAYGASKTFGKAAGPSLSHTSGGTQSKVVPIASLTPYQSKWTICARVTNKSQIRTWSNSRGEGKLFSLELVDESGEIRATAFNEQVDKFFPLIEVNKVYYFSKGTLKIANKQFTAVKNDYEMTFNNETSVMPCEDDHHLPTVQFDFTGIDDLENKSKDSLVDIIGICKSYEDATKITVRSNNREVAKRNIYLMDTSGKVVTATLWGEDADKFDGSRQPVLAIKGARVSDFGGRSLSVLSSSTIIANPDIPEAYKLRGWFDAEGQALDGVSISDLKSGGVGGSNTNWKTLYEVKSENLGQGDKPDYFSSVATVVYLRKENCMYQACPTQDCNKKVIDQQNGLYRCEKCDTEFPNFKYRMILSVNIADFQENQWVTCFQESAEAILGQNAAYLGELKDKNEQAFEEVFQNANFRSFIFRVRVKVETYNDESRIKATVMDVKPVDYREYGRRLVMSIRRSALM
# Sequence (P15927 whole entry, chain 2 of 3, further chain): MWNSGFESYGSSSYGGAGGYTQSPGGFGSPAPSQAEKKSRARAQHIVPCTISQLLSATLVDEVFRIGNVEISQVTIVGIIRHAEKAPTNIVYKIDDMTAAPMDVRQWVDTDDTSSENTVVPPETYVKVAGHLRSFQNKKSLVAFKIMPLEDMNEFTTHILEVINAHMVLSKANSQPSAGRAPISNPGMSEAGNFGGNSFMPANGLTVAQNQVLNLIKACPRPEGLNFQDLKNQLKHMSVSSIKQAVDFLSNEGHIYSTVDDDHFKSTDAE
# Sequence (P35244 whole entry, chain 3 of 3, further chain): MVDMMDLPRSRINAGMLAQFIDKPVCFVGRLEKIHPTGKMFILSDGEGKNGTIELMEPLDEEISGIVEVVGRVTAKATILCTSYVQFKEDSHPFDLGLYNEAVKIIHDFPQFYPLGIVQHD
# Sequence of Recombinant human xeroderma pigmentosum group A protein (hXPA) bearing the N-terminal polyhistidine fragment (P23025 whole entry, the tested form may be a part): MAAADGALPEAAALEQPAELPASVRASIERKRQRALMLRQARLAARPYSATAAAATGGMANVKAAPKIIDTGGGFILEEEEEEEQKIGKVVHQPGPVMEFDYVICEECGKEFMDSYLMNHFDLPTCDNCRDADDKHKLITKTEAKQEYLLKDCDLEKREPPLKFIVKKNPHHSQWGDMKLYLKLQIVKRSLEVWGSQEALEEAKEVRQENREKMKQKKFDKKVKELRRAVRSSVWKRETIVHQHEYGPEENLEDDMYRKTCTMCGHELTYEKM
substance,measurement,value
Recombinant human xeroderma pigmentosum group A protein (hXPA) bearing the N-terminal polyhistidine fragment (from UniProt P23025 1-273) (natural protein),pEC50,7.74
